Results from publication PMC8954747 (Viruses, 2022).

Key:
Experiment in all cases: ITC
Settings in all cases: both partners purified
[1] = target: T1, human Scribble (SCRIB) PDZ1 domain (residues 725-815) (human, UniProt Q14160 725-815)
T1 construct: also called PDZ1 WT

[2] = target: T2, human Scribble (SCRIB) PDZ2 domain (residues 860-950) (human, UniProt Q14160 860-950)
T2 construct: also called PDZ2 WT
T2 sequence (looked up): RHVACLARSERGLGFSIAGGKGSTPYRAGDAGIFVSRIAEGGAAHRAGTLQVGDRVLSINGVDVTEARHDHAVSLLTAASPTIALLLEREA

[3] = target: T3, human Scribble (SCRIB) PDZ3 domain (residues 1002-1093) (human, UniProt Q14160 1002-1093)
T3 construct: also called wild-type SCRIB PDZ3
T3 sequence (looked up): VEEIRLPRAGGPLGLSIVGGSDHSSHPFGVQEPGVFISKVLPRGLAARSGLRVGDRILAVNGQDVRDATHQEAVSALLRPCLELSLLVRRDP

[4] = target: T4, human Scribble (SCRIB) PDZ4 domain (residues 1099-1203) (human, UniProt Q14160 1099-1203)
T4 sequence (looked up): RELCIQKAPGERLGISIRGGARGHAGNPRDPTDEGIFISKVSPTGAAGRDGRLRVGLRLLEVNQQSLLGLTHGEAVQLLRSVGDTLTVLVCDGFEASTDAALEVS

T1 sequence (Q14160 725-815): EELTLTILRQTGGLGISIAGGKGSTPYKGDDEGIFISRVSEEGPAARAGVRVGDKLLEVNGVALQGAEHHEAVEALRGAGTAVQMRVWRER

Row | Binder | Kd [1] [µM] | stoichiometry N [1] | Kd [2] [µM] | stoichiometry N [2] | Kd [3] [µM] | stoichiometry N [3] | Kd [4] [µM] | stoichiometry N [4]
1 | KMARTIESEV [NS1 ESEV PBM peptide KMARTIESEV (H5N1 A/Viet Nam/1194/2004), 10-mer] | 21.4 | 1.1 ± 0.1 | 18.7 | 1 ± 0.03 | 13.1 | 1.1 ± 0.1 | 12.2 | 1 ± 0.1
2 | KMARTIESKV [NS1 ESKV PBM peptide KMARTIESKV (H5N1 A/chicken/Hubei/327/2004), 10-mer] | 30 | 1.2 | 9.5 | 1.1 | 12.1 | 1.1 |  | 
